Measured values reported in US20190010248A1 (Pieris, published 2019).

Target: T1, recombinant CD137-Fc fusion (#838-4B-100, R&D Systems) (human, UniProt Q07011 24-186)
T1 construct: also called Fc-fusion of human CD137; human CD137-Fc; not shown: Fc part of the bought fusion
Experiment: ELISA, CD137-Fc coated, detection with anti-hNGAL antibody-HRP

EC50: 0.49 nM
B1: lipocalin mutein of SEQ ID NO: 2 (designed binder)
chain: QDSTSDLIPAPPLSKVPLQQNFQDNQFHGKWYVVGQAGNIRLREDKDPIKMMATIYELKEDKSYDVTMVKFDDKKCMYDIWTFVPGSQPGEFTLGKIKSFPGHTSSLVRVVSTNYNQHAMVFFKFVFQNREEFYITLYGRTKELTSELKENFIRFSKSLGLPENHIVFPVPIDQCIDG
notes: also called positive control lipocalin mutein; CD137-specific lipocalin mutein in monomeric form
